B1: A-type potassium channel modulatory protein KCNIP1 (Homo sapiens), Q9NZI2 (parent)
chain: MGAVMGTFSSLQTKQRRPSKDIAWWYYQYQRDKIEDELEMTMVCHRPEGLEQLEAQTNFTKRELQVLYRGFKNECPSGVVNEDTFKQIYAQFFPHGDASTYAHYLFNAFDTTQTGSVKFEDFVTALSILLRGTVHEKLRWTFNLYDINKDGYINKEEMMDIVKAIYDMMGKYTYPVLKEDTPRQHVDVFFQKMDKNKDGIVTLDEFLESCQEDDNIMRSLQLFQNVM
partner: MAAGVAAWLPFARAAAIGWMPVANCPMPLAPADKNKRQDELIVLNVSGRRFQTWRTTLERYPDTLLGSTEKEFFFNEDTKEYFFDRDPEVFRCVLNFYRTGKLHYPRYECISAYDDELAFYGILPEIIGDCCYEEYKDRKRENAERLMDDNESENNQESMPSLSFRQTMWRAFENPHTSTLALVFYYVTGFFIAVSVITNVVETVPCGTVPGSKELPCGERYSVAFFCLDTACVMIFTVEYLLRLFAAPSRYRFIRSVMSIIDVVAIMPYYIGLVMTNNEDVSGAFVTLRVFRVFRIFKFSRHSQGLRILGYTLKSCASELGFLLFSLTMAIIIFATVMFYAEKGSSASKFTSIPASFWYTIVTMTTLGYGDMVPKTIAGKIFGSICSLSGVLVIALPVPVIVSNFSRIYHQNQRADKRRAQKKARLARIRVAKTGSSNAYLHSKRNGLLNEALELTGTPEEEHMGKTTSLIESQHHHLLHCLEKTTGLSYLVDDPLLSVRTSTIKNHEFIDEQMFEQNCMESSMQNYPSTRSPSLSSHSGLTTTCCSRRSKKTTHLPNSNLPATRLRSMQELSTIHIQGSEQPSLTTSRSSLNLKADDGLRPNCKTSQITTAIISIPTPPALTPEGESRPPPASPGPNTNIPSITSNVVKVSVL

The variants in the assay derive from B1. The note with it: with kcnd3_rat Kcnd3, Q62897.
MGAVMGTFSSLQTKQRRPSKDIAWWYYQYQRDKIEDELEMTMVCHRPEGLEQLEAQTNFTKRELQVLYRGFKNECPSGVVNEDTFKQIYAQFFPHGDASTYAHYLFNAFDTTQTGSVKFEDFVTALSILLRGTVHEKLRWTFNLYAINKDGYINKEEMMDIVKAIYDMMGKYTYPVLKEDTPRQHVDVFFQKMAKNKDGIVTLDEFLESCQEDDNIMRSLQLFQNVM [D146A;D194A]: the “effect of a mutation on the interaction” value was “decreasing interaction strength”.

The record behind these values is IntAct's records for PubMed 17057713.
